Experimental data taken from paper PMC3082538, “High-Throughput Protein Expression Using a Combination of Ligation-Independent Cloning (LIC) and Infrared Fluorescent Protein (IFP) Detection” (PLoS ONE, 2011).

How the values were obtained:
Assay in all cases: pull-down; 5 µg purified GST or GST-GRF fusion immobilised on BSA-pretreated magnetic glutathione agarose beads (MagneGST) with 0.5% Nonidet-P40 and 10% BSA; incubated with 1 µg purified IFP fusion protein, room temperature, 60 min; five washes with 0.5% Nonidet-P40; eluate read by infrared imaging (700 nm) in microtiter plates, then SDS-PAGE and in-gel detection
Conditions in all cases: both partners purified
GST-GRF1 fusion protein = target: T1, GST-GRF1 fusion protein (Arabidopsis thaliana, UniProt P42643 1-267)
T1 construct: GRF1 of Arabidopsis thaliana (AGI At4g09000), open reading frame in pDEST15; Printed size 58 kDa; Gateway attB linker between GST and GRF1; source: E. coli BL21 (DE3) pLysS, purified (GSTrap HP column, Äkta-FPLC); not shown: GST, N-terminal, kept
T1 sequence (looked up): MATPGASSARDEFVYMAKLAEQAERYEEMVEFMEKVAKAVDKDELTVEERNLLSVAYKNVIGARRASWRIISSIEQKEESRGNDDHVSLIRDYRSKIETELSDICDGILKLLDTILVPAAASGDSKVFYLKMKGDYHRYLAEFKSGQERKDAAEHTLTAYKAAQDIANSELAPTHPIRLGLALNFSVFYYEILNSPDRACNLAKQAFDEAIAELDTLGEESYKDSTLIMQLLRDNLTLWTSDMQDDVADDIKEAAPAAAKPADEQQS

GST-GRF2 fusion protein = target: T2, GST-GRF2 fusion protein (Arabidopsis thaliana, UniProt Q01525 1-259)
T2 construct: GRF2 of Arabidopsis thaliana (AGI At1g78300), open reading frame in pDEST15; Printed size 57 kDa; Gateway attB linker between GST and GRF2; source: E. coli BL21 (DE3) pLysS, purified (GSTrap HP column, Äkta-FPLC); not shown: GST, N-terminal, kept
T2 sequence (looked up): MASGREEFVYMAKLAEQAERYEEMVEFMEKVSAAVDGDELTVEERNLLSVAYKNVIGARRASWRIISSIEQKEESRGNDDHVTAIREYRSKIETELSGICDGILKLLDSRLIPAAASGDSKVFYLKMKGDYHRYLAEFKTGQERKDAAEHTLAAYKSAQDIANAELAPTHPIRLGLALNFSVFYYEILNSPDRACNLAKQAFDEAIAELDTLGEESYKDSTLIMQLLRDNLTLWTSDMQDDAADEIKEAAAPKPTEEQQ

GST-GRF3 fusion protein = target: T3, GST-GRF3 fusion protein (Arabidopsis thaliana, UniProt P42644 1-255)
T3 construct: GRF3 of Arabidopsis thaliana (AGI At5g38480), open reading frame in pDEST15; Printed size 56 kDa; Gateway attB linker between GST and GRF3; source: E. coli BL21 (DE3) pLysS, purified (GSTrap HP column, Äkta-FPLC); not shown: GST, N-terminal, kept
T3 sequence (looked up): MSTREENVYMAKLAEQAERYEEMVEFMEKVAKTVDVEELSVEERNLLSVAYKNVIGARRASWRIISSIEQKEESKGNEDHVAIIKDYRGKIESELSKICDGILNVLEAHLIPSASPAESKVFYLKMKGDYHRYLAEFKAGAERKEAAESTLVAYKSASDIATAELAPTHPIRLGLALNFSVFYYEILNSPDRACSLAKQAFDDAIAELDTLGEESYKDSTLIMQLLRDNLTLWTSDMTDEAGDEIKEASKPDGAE

GST-GRF4 fusion protein = target: T4, GST-GRF4 fusion protein (Arabidopsis thaliana, UniProt P46077 1-267)
T4 construct: GRF4 of Arabidopsis thaliana (AGI At1g35160), open reading frame in pDEST15; Printed size 58 kDa; Gateway attB linker between GST and GRF4; source: E. coli BL21 (DE3) pLysS, purified (GSTrap HP column, Äkta-FPLC); not shown: GST, N-terminal, kept
T4 sequence (looked up): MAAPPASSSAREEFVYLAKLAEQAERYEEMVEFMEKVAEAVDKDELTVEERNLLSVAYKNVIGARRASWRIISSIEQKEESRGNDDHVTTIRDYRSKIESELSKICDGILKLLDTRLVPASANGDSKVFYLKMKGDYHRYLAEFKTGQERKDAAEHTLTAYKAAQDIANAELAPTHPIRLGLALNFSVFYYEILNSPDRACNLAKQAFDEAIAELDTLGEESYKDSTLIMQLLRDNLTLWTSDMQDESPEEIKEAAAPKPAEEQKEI

GST-GRF5 fusion protein = target: T5, GST-GRF5 fusion protein (Arabidopsis thaliana, UniProt P42645 1-268)
T5 construct: GRF5 of Arabidopsis thaliana (AGI At5g16050), open reading frame in pDEST15; Printed size 58 kDa; Gateway attB linker between GST and GRF5; source: E. coli BL21 (DE3) pLysS, purified (GSTrap HP column, Äkta-FPLC); not shown: GST, N-terminal, kept
T5 sequence (looked up): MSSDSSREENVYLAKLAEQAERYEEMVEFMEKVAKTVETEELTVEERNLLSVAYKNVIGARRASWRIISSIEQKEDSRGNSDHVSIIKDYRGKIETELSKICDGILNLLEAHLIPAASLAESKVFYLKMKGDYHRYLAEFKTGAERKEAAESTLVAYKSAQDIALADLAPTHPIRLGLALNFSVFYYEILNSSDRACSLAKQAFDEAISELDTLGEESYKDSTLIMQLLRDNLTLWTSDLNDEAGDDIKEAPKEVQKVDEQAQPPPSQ

GST-GRF6 fusion protein = target: T6, GST-GRF6 fusion protein (Arabidopsis thaliana, UniProt P48349 1-248)
T6 construct: GRF6 of Arabidopsis thaliana (AGI At5g10450), open reading frame in pDEST15; Printed size 56 kDa; Gateway attB linker between GST and GRF6; source: E. coli BL21 (DE3) pLysS, purified (GSTrap HP column, Äkta-FPLC); not shown: GST, N-terminal, kept
T6 sequence (looked up): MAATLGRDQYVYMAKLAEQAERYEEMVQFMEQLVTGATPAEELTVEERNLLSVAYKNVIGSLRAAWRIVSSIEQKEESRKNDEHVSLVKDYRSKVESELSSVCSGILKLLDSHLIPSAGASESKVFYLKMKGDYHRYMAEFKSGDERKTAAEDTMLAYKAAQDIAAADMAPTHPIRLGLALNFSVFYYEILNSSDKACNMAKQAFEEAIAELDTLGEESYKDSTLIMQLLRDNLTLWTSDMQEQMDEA

- binding result (GST-GRF1 fusion protein): binds
- binding result (GST-GRF2 fusion protein): binds
- binding result (GST-GRF3 fusion protein): binds
- binding result (GST-GRF4 fusion protein): binds
- binding result (GST-GRF5 fusion protein): binds
- binding result (GST-GRF6 fusion protein): binds
B1: TPK1(1-79)-TEV-IFP-6xHis fusion protein (domain or fragment, Arabidopsis thaliana, UniProt Q8LBL1 1-79, looked up)
chain: MSSDAARTPLLPTEKIDTMAQDFNLNSRTSSSRKRRLRRSRSAPRGDCMYNDDVKIDEPPPHPSKIPMFSDLNPNLRRV
notes: potassium channel TPK1 of Arabidopsis thaliana (AGI At5g55630), N-terminal cytosolic part, amino acids 1-79; Between TPK1(1-79) and the IFP stand residues from the LIC site and the TEV cleavage site ENLYFQG (LC2 vector: ProteinX-TEV-IFP-6xHis); Printed size 47.6-48 kDa; The IFP moiety carries the chromophore biliverdin (cells grown with hemin); also called TPK1-TEV-IFP-6xHis; …
